In assay [1] the target is T1, Human OX40 expressed on transfected Jurkat or CHO cells (human, UniProt P43489 29-277).
T1 construct: also called human OX40/Jurkat; human OX40/CHO
T1 sequence: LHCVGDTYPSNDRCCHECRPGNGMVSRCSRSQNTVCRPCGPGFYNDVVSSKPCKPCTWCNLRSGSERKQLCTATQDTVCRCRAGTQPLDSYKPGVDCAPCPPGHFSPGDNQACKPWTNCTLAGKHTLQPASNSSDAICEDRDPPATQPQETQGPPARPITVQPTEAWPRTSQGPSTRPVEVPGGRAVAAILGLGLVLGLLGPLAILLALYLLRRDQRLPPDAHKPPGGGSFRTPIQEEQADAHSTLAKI
Put plainly: flow cytometry on human OX40-transfected Jurkat cells, Alexa Fluor488 anti-human IgG Fc, Geo MFI. How it is done:
FIGS. 2A-2C depict whole cell binding of humanized anti-OX40 antibodies to human or cynomolgus OX40 assessed by flow cytometry. Human OX40-expressing Jurkat cells (FIG. 2A), human OX40-expressing CHO cells (FIG. 2B) and cynomolgus OX40-expressing CHO cells (FIG. 2C) were incubated with indicated anti-OX40 bivalent antibodies, and then stained with Alexa Fluor488 conjugated anti-human IgG Fc antibody. The fluorescence intensity was measured by flow cytometry.
(§1) Bivalent antibodies of these 15 clones were made by fusing VHH to human IgG1 Fc, expressed in ExpiCHO cells, and purified by Protein A affinity column. Binding affinity of the VHH-Fc bivalent antibodies to human or cynomolgus OX40 was evaluated by flow cytometry using Jurkat cells transfected with human OX40 (human OX40/Jurkat) (FIG. 2A), CHO cells transfected with human OX40 (human OX40/CHO) (FIG. 2B), and CHO cells transfected with cynomolgus OX40 (cyno OX40/CHO) (FIG. 2C). These antibodies with indicated concentrations were incubated with the cells in FACS buffer (3% FBS in PBS) on ice for 30 min, and the free antibodies were washed out with FACS buffer. Alexa fluor488 conjugated anti-human IgG Fc antibody (1:500) (Alexa Fluor488 AffiniPure goat anti-human IgG, Fcg fragment specific, Jackson labs) was further incubated with the cells on ice for 30 min. Cells were washed to remove free antibodies prior to FACS analysis using CytoFlex (Beckman Coulter). Binding affinity was calculated using GraphPad Prism three parameter logistic equation.
A general note: Flow cytometry measures light scatter and fluorescence of single cells or particles in a stream.

The target in assay [2] is T2, Recombinant human OX40 extracellular domain fused to human IgG1 Fc (human, UniProt P43489 29-214).
T2 construct: Produced in-house; also called OX40 ECD-Fc; human OX40 ECD-Fc; not shown: human IgG1 Fc
T2 sequence: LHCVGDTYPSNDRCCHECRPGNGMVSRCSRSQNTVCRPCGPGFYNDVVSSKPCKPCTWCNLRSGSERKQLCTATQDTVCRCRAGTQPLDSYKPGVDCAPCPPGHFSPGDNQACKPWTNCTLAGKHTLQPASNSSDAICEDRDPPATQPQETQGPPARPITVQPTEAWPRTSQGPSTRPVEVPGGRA
Put plainly: Octet, human OX40 ECD-Fc immobilized on a biosensor chip. The source says:
The tetravalent antibodies were produced from transiently transfected ExpiCHO cells, and purified by Protein A affinity column.
A general note: Biolayer interferometry detects binding as a change in optical thickness at a sensor tip.

For assay [3], the target named is T1, Human OX40 expressed on transfected …. As to the kind of experiment: flow cytometry on human OX40-expressing CHO cells, Geo MFI. How it is done: (§2) FIGS. 4A-4D depict whole cell binding of anti-OX40 antibodies to human and cynomolgus OX40 assessed by flow cytometry.
as §1
(§3) The binding affinity of the anti-OX40 antibodies was further evaluated by flow cytometry using human OX40/Jurkat cells and human OX40/CHO cells using protocols described above. […] The cross-reactivity of the antibodies to cynomolgus OX40 was assessed by FACS analysis using cyno OX40/CHO cells.

Assay [4] shares this target. Put plainly: flow cytometry on human OX40-expressing Jurkat cells, Geo MFI. The method, then: as §2, §1, §3
Assay [5] has as its target T3, Cynomolgus OX40 expressed on transfected CHO cells (cynomolgus).
T3 chain: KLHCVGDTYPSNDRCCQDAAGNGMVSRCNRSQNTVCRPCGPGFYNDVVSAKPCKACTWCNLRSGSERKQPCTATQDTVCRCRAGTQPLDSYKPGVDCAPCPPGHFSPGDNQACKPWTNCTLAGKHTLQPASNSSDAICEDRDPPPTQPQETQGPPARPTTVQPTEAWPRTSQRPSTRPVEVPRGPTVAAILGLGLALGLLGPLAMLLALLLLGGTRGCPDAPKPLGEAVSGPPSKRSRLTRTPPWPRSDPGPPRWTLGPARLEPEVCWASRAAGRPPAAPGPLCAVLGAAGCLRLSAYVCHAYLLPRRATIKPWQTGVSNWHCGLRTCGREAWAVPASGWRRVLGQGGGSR
As to the kind of experiment: flow cytometry on cynomolgus OX40-expressing CHO cells, Geo MFI. How it is done:
as §2
as §1, with “Cells were washed to remove free antibodies prior to FACS analysis using CytoFlex (Beckman Coulter).” left out
as §3

The target of assay [6] is T1, Human OX40 expressed on transfected …. As to the kind of experiment: flow cytometry, whole cell binding to human OX40-expressing Jurkat cells, Geo MFI.
The target is the same in assay [7]. The description is as above. This is another data set of the same source.

B1: 4H2 VHH-Fc bivalent antibody (antibody, human IgG1, V domains shown)
VH: EVQLVESGGGLVQPGGSLRLSCAASGPLGYPSIAWFRQAPGKGLEFVSGIAWSTGDTYYADSVKGRFTISRDNSKNTLYLQMNSLRAEDTAVYYCAADTVVHYMGRHDIRDAEEYDYWGQGTLVTVSS
notes: Humanized VHH fused to human IgG1 Fc
For the molecule B1, the binding result in assay [1] is “binds”.

B2: 1B3 tetravalent anti-OX40 antibody (1B3 VHH with GS linker on CH1 and on CL of human IgG1) (antibody, V domains shown)
V domain 1: EVQLVESGGGLVQPGGSLRLSCAASGPLGMPSIAWFRQAPGKGLEFVSGIAWSTGDTYYADSVKGRFTISRDNSKNTLYLQMNSLRAEDTAVYYCAADTQVHYMGRHDIRDREEYDYWGQGTLVTVSS
V domain 2: EVQLVESGGGLVQPGGSLRLSCAASGPLGMPSIAWFRQAPGKGLEFVSGIAWSTGDTYYADSVKGRFTISRDNSKNTLYLQMNSLRAEDTAVYYCAADTQVHYMGRHDIRDREEYDYWGQGTLVTVSS
notes: Four-chain format; The heavy and light variable regions of human IgG1 are replaced by the VHH
The Kd is a measure of binding affinity in units of concentration. Usually koff stands for a measure of how fast the partners let go of each other. The EC50 is the midpoint of the concentration-response curve. A high value points to lower potency in that assay. For the molecule B2, the Kd in assay [2] is 6.57 nM. Moreover, the koff in assay [2] worked out at 0.000646 s⁻¹. The EC50 came out at 2.01 nM in assay [3], 0.16 nM in assay [4], 1.93 nM in assay [5] and 0.15 nM in assay [6].

B3: 1B3 VHH-Fc bivalent antibody (antibody, human IgG1, V domains shown)
VH: EVQLVESGGGLVQPGGSLRLSCAASGPLGMPSIAWFRQAPGKGLEFVSGIAWSTGDTYYADSVKGRFTISRDNSKNTLYLQMNSLRAEDTAVYYCAADTQVHYMGRHDIRDREEYDYWGQGTLVTVSS
notes: also called 1B3-bivalent
Consider B3, for which, in assay [2], the Kd came out at 3.83 nM and the koff was determined as 0.000391 s⁻¹. In addition, the response in assay [3] was half-maximal at 2.69 nM (EC50). In assay [4], this molecule returned an EC50 of 4.25 nM.

B4: 1F4B VHH-Fc bivalent antibody (antibody, human IgG1, V domains shown)
VH: EVQLVESGGGLVQPGGSLRLSCAASGPLGTPSIAWFRQAPGKGLEFVSAIAWSQGDTYYADSVKGRFTISRDNSKNTLYLQMNSLRAEDTAVYYCAADTVVHYMGRHDIRDEEEYDYWGQGTLVTVSS
notes: as for B1
Turning to B4, the binding result in assay [1] is listed as “binds”.

B5: 2D3B VHH-Fc bivalent antibody (antibody, human IgG1, V domains shown)
VH: EVQLVESGGGLVQPGGSLRLSCAASGPLGSPSIAWFRQAPGKGLEFVSGIAWSTGDTYYADSVKGRFTISRDNSKNTLYLQMNSLRAEDTAVYYCAADTVVHYMVRHDIRDRESYDYWGQGTLVTVSS
notes: as for B1
Consider B5, for which the binding result in assay [1] was “binds”.

B6: 3B8 VHH-Fc bivalent antibody (antibody, human IgG1, V domains shown)
VH: EVQLVESGGGLVQPGGSLRLSCAASGPLGQPSIAWFRQAPGKGLEFVSGIAWSSGDTYYADSVKGRFTISRDNSKNTLYLQMNSLRAEDTAVYYCAADTRVHYMGRHDIRDREEYDYWGQGTLVTVSS
notes: as for B1
On to B6, for which the binding result in assay [1] is listed as “binds”.

B7: 4E8 VHH-Fc bivalent antibody (antibody, human IgG1, V domains shown)
VH: EVQLVESGGGLVQPGGSLRLSCAASGPLGYPSFAWFRQAPGKGLEFVSGIAWSSGDTYYADSVKGRFTISRDNSKNTLYLQMNSLRAEDTAVYYCAADTVVGYMGRHDIRDLEEYDYWGQGTLVTVSS
notes: as for B1
Consider B7, for which the binding result in assay [1] is recorded as “binds”.

B8: 1E6 VHH-Fc bivalent antibody (antibody, human IgG1, V domains shown)
VH: EVQLVESGGGLVQPGGSLRLSCAASGPLGLPSIAWFRQAPGKGLEFVSGIAWSTGDTYYADSVKGRFTISRDNSKNTLYLQMNSLRAEDTAVYYCAADTVVHYMGQHDIRDRVEYDYWGQGTLVTVSS
notes: as for B1
As for B8, in assay [1], the binding result was “binds”.

B9: 1B7 VHH-Fc bivalent antibody (antibody, human IgG1, V domains shown)
VH: EVQLVESGGGLVQPGGSLRLSCAASGPLGEPSIAWFRQAPGKGLEFVSGIAWSSGDTYYADSVKGRFTISRDNSKNTLYLQMNSLRAEDTAVYYCAADTVVHYMGRHDIRDREEYDYWGQGTLVTVSS
notes: as for B1
Consider B9, for which the binding result in assay [1] is “binds”.

B10: 4A6B VHH-Fc bivalent antibody (antibody, human IgG1, V domains shown)
VH: EVQLVESGGGLVQPGGSLRLSCAASGPLGYPLIAWFRQAPGKGLEFVSGIAWSDGDTYYADSVKGRFTISRDNSKNTLYLQMNSLRAEDTAVYYCAADTVVHYMGRHDIRDRSEYDYWGQGTLVTVSS
notes: as for B1
In the case of B10, in assay [1], the binding result is “binds”.

B11: 4D10 VHH-Fc bivalent antibody (antibody, human IgG1, V domains shown)
VH: EVQLVESGGGLVQPGGSLRLSCAASGPLGYPFIAWFRQAPGKGLEFVSGIAWSTGDTYYADSVKGRFTISRDNSKNTLYLQMNSLRAEDTAVYYCAADTVVHYMGRHDIRDREEYDYWGQGTLVTVSS
notes: as for B1
Turning to B11, the binding result in assay [1] is given as “binds”.

B12: 1C8 VHH-Fc bivalent antibody (antibody, human IgG1, V domains shown)
VH: EVQLVESGGGLVQPGGSLRLSCAASGPLGLPSIAWFRQAPGKGLEFVSGIAWEGGDTYYADSVKGRFTISRDNSKNTLYLQMNSLRAEDTAVYYCAADTVVHYMGRHDIRDYEEYDYWGQGTLVTVSS
notes: as for B1
For the molecule B12, the binding result in assay [1] was “binds”.

B13: 1G9B VHH-Fc bivalent antibody (antibody, human IgG1, V domains shown)
VH: EVQLVESGGGLVQPGGSLRLSCAASGPLGYPHIAWFRQAPGKGLEFVSGIAWSGGDSYYADSVKGRFTISRDNSKNTLYLQMNSLRAEDTAVYYCAADTLVHYMGRHDISDREEYDYWGQGTLVTVSS
notes: as for B1
Take B13: the binding result in assay [1] was “binds”.

B14: 2B7 VHH-Fc bivalent antibody (antibody, human IgG1, V domains shown)
VH: EVQLVESGGGLVQPGGSLRLSCAASGPLGAPSIAWFRQAPGKGLEFVSGIAWSTGDTYYADSVKGRFTISRDNSKNTLYLQMNSLRAEDTAVYYCAADTSVHYMGRHDIRDYEEYDYWGQGTLVTVSS
notes: also called 2B7-bivalent
On to B14, for which, in assay [2], the Kd turned out to be 3.68 nM and the koff worked out at 0.000398 s⁻¹. In addition, the midpoint of the response in assay [3], the EC50, lay at 3.11 nM. For the same molecule, in assay [4], the EC50 worked out at 9.79 nM.

B15: 4F5 VHH-Fc bivalent antibody (antibody, human IgG1, V domains shown)
VH: EVQLVESGGGLVQPGGSLRLSCAASGPLGLPSIAWFRQAPGKGLEFVSGIVWSGGDTYYADSVKGRFTISRDNSKNTLYLQMNSLRAEDTAVYYCAADTKVHYMGRFDIRDLEEYDYWGQGTLVTVSS
notes: as for B1
As to B15, in assay [1], the binding result is “binds”.

B16: 2D9 VHH-Fc bivalent antibody (antibody, human IgG1, V domains shown)
VH: EVQLVESGGGLVQPGGSLRLSCAASGPLGYPNIAWFRQAPGKGLEFVSGIAWSTGDTYYADSVKGRFTISRDNSKNTLYLQMNSLRAEDTAVYYCAADTVVHYMGRHDIRDREVYDYWGQGTLVTVSS
notes: as for B1
With B16, the binding result in assay [1] is “binds”.

B17: 2B7 tetravalent anti-OX40 antibody (2B7 VHH with GS linker on CH1 and on CL of human IgG1) (antibody, V domains shown)
V domain 1: EVQLVESGGGLVQPGGSLRLSCAASGPLGAPSIAWFRQAPGKGLEFVSGIAWSTGDTYYADSVKGRFTISRDNSKNTLYLQMNSLRAEDTAVYYCAADTSVHYMGRHDIRDYEEYDYWGQGTLVTVSS
V domain 2: EVQLVESGGGLVQPGGSLRLSCAASGPLGAPSIAWFRQAPGKGLEFVSGIAWSTGDTYYADSVKGRFTISRDNSKNTLYLQMNSLRAEDTAVYYCAADTSVHYMGRHDIRDYEEYDYWGQGTLVTVSS
With B17, in assay [2], the Kd was 6.94 nM. Further, the koff in assay [2] was determined as 0.000763 s⁻¹. Moreover, the EC50 in assay [3] was found to be 1.96 nM; in assay [4] it was 0.2 nM; in assay [5], 1.98 nM; in assay [6], 0.14 nM; in assay [7], 0.39 nM.

Values taken from patent US20240383996A1 (SHANGHAI HENLIUS BIOTECH, published 2024).
